For the assay, the target named is HLA-A*02:01-restricted MART-1 epitope, A*02:0. In words: cell-based or functional assay.

Substance DMF4 (TCR) had a frequency of the TCR in post-real-selection (CD137-positive, sorted) against pre-selection polyclonal TCR-T cells, by NGS of 10 fold.
